Source: US20160355591A1
Values belong to the substance of their own block, whether it stands above or below them.

What was measured:
[1] = biological target: HLA-DR (human leukocyte antigen-DR) on human lymphoma and leukemia cells and human lymphocytes (human); assay: 697 (ALL) cells; no mAb 4.9; isotype control
[2] = biological target: HLA-DR (human leukocyte antigen-DR) on human lymphoma and leukemia cells and human lymphocytes (human); assay: REH (ALL) cells; no mAb 3.9; isotype control
[3] = biological target: HLA-DR (human leukocyte antigen-DR) on human lymphoma and leukemia cells and human lymphocytes (human); assay: K562 (CML) cells; no mAb 3.2; isotype control
[4] = biological target: HLA-DR (human leukocyte antigen-DR) on human lymphoma and leukemia cells and human lymphocytes (human); assay: MN60 (ALL) cells; no mAb 8.1; isotype control
[5] = biological target: HLA-DR (human leukocyte antigen-DR) on human lymphoma and leukemia cells and human lymphocytes (human); assay: WAC (CLL) cells; no mAb 15.8; isotype control
[6] = biological target: HLA-DR (human leukocyte antigen-DR) on human lymphoma and leukemia cells and human lymphocytes (human); assay: MEC-1 (CLL) cells; no mAb 4.7; isotype control
[7] = biological target: HLA-DR (human leukocyte antigen-DR) on human lymphoma and leukemia cells and human lymphocytes (human); assay: GDM-1 (AML) cells; no mAb 16.8; isotype control
[8] = biological target: HLA-DR (human leukocyte antigen-DR) on human lymphoma and leukemia cells and human lymphocytes (human); assay: RS4;11 (ALL) cells; no mAb 6.4; isotype control
[9] = biological target: HLA-DR (human leukocyte antigen-DR) on human lymphoma and leukemia cells and human lymphocytes (human); assay: Jeko-1 (MCL) cells; no mAb 14.3; isotype control
[10] = biological target: HLA-DR (human leukocyte antigen-DR) on human lymphoma and leukemia cells and human lymphocytes (human); assay: Kasumi-3 (AML) cells; no mAb 9.6; isotype control
[11] = biological target: HLA-DR (human leukocyte antigen-DR) on human lymphoma and leukemia cells and human lymphocytes (human); assay: Kasumi-1 (AML) cells; no mAb 18.2; isotype control
[12] = biological target: HLA-DR (human leukocyte antigen-DR) on human lymphoma and leukemia cells and human lymphocytes (human); assay: Granta-519 (MCL) cells; no mAb 15.3; isotype control
[13] = biological target: HLA-DR (human leukocyte antigen-DR) on human lymphoma and leukemia cells and human lymphocytes (human); assay: HC-1 (hairy cell leukemia) cells; no mAb 4.8; isotype control
[14] = biological target: HLA-DR (L243 antigen) on canine lymphocytes and canine lymphoma cells (dog); assay: flow cytometry, dog lymphoma aspirate; none 3.37; control antibody
[15] = biological target: HLA-DR (L243 antigen) on canine lymphocytes and canine lymphoma cells (dog); assay: flow cytometry, dog lymphoma aspirate; none 3.85; control antibody
[16] = biological target: HLA-DR (L243 antigen) on canine lymphocytes and canine lymphoma cells (dog); assay: flow cytometry, canine lymphoma aspirate 150836; none 3.4; control antibody
[17] = biological target: HLA-DR (L243 antigen) on canine lymphocytes and canine lymphoma cells (dog); assay: flow cytometry, canine lymphoma aspirate 150836; none 3.9; control antibody
[18] = biological target: HLA-DR (human leukocyte antigen-DR) on human lymphoma and leukemia cells and human lymphocytes (human); assay: indirect flow cytometry, Namalwa cells, FITC-GAM 2nd Ab; none 2.91; control antibody
[19] = biological target: CD22 on human cells (human) (UniProt P20273); assay: 697 (ALL) cells; no mAb 4.9
[20] = biological target: CD22 on human cells (human) (UniProt P20273); assay: REH (ALL) cells; no mAb 3.9
[21] = biological target: CD22 on human cells (human) (UniProt P20273); assay: K562 (CML) cells; no mAb 3.2
[22] = biological target: CD22 on human cells (human) (UniProt P20273); assay: MN60 (ALL) cells; no mAb 8.1
[23] = biological target: CD22 on human cells (human) (UniProt P20273); assay: WAC (CLL) cells; no mAb 15.8
[24] = biological target: CD22 on human cells (human) (UniProt P20273); assay: MEC-1 (CLL) cells; no mAb 4.7
[25] = biological target: CD22 on human cells (human) (UniProt P20273); assay: GDM-1 (AML) cells; no mAb 16.8
[26] = biological target: CD22 on human cells (human) (UniProt P20273); assay: RS4;11 (ALL) cells; no mAb 6.4
[27] = biological target: CD22 on human cells (human) (UniProt P20273); assay: Jeko-1 (MCL) cells; no mAb 14.3
[28] = biological target: CD22 on human cells (human) (UniProt P20273); assay: Kasumi-3 (AML) cells; no mAb 9.6
[29] = biological target: CD22 on human cells (human) (UniProt P20273); assay: Kasumi-1 (AML) cells; no mAb 18.2
[30] = biological target: CD22 on human cells (human) (UniProt P20273); assay: Granta-519 (MCL) cells; no mAb 15.3
[31] = biological target: CD22 on human cells (human) (UniProt P20273); assay: HC-1 (hairy cell leukemia) cells; no mAb 4.8
[32] = biological target: CD22 on dog lymphocytes and dog lymphoma cells (dog); assay: flow cytometry, dog lymphoma aspirate; none 3.37
[33] = biological target: CD22 on dog lymphocytes and dog lymphoma cells (dog); assay: flow cytometry, dog lymphoma aspirate; none 3.85
[34] = biological target: CD22 on dog lymphocytes and dog lymphoma cells (dog); assay: flow cytometry, canine lymphoma aspirate 150836; none 3.4
[35] = biological target: CD22 on dog lymphocytes and dog lymphoma cells (dog); assay: flow cytometry, canine lymphoma aspirate 150836; none 3.9
[36] = biological target: CD22 on human cells (human) (UniProt P20273); assay: indirect flow cytometry, Namalwa cells, FITC-GAM 2nd Ab; none 2.91
[37] = biological target: Fcγ-receptor on effector cells; assay: cell-based or functional assay
[38] = biological target: CD22 on dog lymphocytes and dog lymphoma cells (dog); assay: flow cytometry, dog lymphoma aspirate; none 3.24
[39] = biological target: CD22 on dog lymphocytes and dog lymphoma cells (dog); assay: flow cytometry, dog lymphoma aspirate; none 4.48
[40] = biological target: CD22 on dog lymphocytes and dog lymphoma cells (dog); assay: flow cytometry, canine lymphoma aspirate 150836; none 3.2
[41] = biological target: CD22 on dog lymphocytes and dog lymphoma cells (dog); assay: flow cytometry, canine lymphoma aspirate 150836; none 4.5
[42] = biological target: HLA-DR (human leukocyte antigen-DR) on human lymphoma and leukemia cells and human lymphocytes (human); assay: indirect flow cytometry, Namalwa cells, FITC-GAM 2nd Ab; none 2.91; antibody of irrelevant specificity
[43] = biological target: HLA-DR (human leukocyte antigen-DR) on human lymphoma and leukemia cells and human lymphocytes (human); assay: indirect flow cytometry, Namalwa cells, FITC-GAH 2nd Ab; none 2.52; antibody of irrelevant specificity (anti-EGP-1)
[44] = biological target: T1, CD20 on human cells (human) (UniProt P11836); assay: 697 (ALL) cells; no mAb 4.9
T1 sequence (looked up): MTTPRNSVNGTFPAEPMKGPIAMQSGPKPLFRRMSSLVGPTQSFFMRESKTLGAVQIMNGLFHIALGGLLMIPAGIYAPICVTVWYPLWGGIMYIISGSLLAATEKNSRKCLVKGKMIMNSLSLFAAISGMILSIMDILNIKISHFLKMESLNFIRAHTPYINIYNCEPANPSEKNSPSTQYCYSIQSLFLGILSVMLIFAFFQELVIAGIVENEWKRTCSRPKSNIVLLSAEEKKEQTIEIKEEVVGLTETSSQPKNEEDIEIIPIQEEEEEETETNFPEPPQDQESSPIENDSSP

[45] = biological target: T1, CD20 on human cells (human); assay: REH (ALL) cells; no mAb 3.9
[46] = biological target: T1, CD20 on human cells (human); assay: K562 (CML) cells; no mAb 3.2
[47] = biological target: T1, CD20 on human cells (human); assay: MN60 (ALL) cells; no mAb 8.1
[48] = biological target: T1, CD20 on human cells (human); assay: WAC (CLL) cells; no mAb 15.8
[49] = biological target: T1, CD20 on human cells (human); assay: MEC-1 (CLL) cells; no mAb 4.7
[50] = biological target: T1, CD20 on human cells (human); assay: GDM-1 (AML) cells; no mAb 16.8
[51] = biological target: T1, CD20 on human cells (human); assay: RS4;11 (ALL) cells; no mAb 6.4
[52] = biological target: T1, CD20 on human cells (human); assay: Jeko-1 (MCL) cells; no mAb 14.3
[53] = biological target: T1, CD20 on human cells (human); assay: Kasumi-3 (AML) cells; no mAb 9.6
[54] = biological target: T1, CD20 on human cells (human); assay: Kasumi-1 (AML) cells; no mAb 18.2
[55] = biological target: T1, CD20 on human cells (human); assay: Granta-519 (MCL) cells; no mAb 15.3
[56] = biological target: T1, CD20 on human cells (human); assay: HC-1 (hairy cell leukemia) cells; no mAb 4.8
[57] = biological target: T2, CD20 on dog lymphocytes and dog lymphoma cells (dog) (UniProt Q3C2E2); assay: flow cytometry, dog lymphoma aspirate; none 3.37
T2 sequence (looked up): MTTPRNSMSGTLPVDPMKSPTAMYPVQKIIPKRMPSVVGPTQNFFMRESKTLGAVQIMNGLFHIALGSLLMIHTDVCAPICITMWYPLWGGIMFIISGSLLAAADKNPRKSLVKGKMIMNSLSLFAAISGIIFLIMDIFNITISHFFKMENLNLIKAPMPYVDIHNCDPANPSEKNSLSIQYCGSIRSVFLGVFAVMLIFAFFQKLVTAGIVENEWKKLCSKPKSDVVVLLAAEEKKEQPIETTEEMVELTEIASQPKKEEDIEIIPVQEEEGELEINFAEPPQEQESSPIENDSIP

[58] = biological target: T2, CD20 on dog lymphocytes and dog lymphoma cells (dog); assay: flow cytometry, dog lymphoma aspirate; none 3.85
[59] = biological target: T2, CD20 on dog lymphocytes and dog lymphoma cells (dog); assay: flow cytometry, canine lymphoma aspirate 150836; none 3.4
[60] = biological target: T2, CD20 on dog lymphocytes and dog lymphoma cells (dog); assay: flow cytometry, canine lymphoma aspirate 150836; none 3.9
[61] = biological target: T2, CD20 on dog lymphocytes and dog lymphoma cells (dog); assay: flow cytometry on tumor aspirates from dogs with lymphoma
[62] = biological target: T1, CD20 on human cells (human); assay: indirect flow cytometry, Namalwa cells, FITC-GAM 2nd Ab; none 2.91

Substance: Ag8 (P3x63 Ag8, murine myeloma derived mAb, isotype control) (antibody)
mean FL [1]: 5.6
mean FL [2]: 3.9
mean FL [3]: 4.1
mean FL [4]: 10.5
mean FL [5]: 14.4
mean FL [6]: 6
mean FL [7]: 20.1
mean FL [8]: 8.6
mean FL [9]: 17.4
mean FL [10]: 15.7
mean FL [11]: 17
mean FL [12]: 16.9
mean FL [13]: 3.5
mean FL [14]: 3.04
% Positive [15]: 2.81%
mean FL [16]: 3
% Positive [17]: 2.8%
geometric mean fluorescence [18]: 3.64

Substance: RS7 (murine mAb) (antibody)
geometric mean fluorescence [42]: 3.39

Substance: hL243γ4P (IMMU-114; humanized L243, IgG4/K isotype with Ser241Pro hinge mutation) (antibody)
specific lysis of Daudi target cells (ADCC), corrected for the effect on effector cells [37]: 12%

Substance: 2B8 (murine anti-human CD20 mAb) (antibody)
mean FL [44]: 6.9
mean FL [45]: 23.5
mean FL [46]: 4.3
mean FL [47]: 162
mean FL [48]: 275
mean FL [49]: 175
mean FL [50]: 15.6
mean FL [51]: 11.5
mean FL [52]: 455
mean FL [53]: 11
mean FL [54]: 14.5
mean FL [55]: 677
mean FL [56]: 42.2
mean FL [57]: 3.11
% Positive [58]: 2.61%
mean FL [59]: 3.1
% Positive [60]: 2.6%
positive samples (of 21 samples) [61]: 5
strongly positive samples (of 21 samples) [61]: 3
geometric mean fluorescence [62]: 6.16

Now from value to substance:

mean FL [19]: 15.9
mean FL [20]: 16.8
mean FL [21]: 4.3
mean FL [22]: 17.1
mean FL [23]: 20.1
mean FL [24]: 49
mean FL [25]: 28.5
mean FL [26]: 20.9
mean FL [27]: 25
mean FL [28]: 13.9
mean FL [29]: 20.9
mean FL [30]: 28.6
mean FL [31]: 17.8
mean FL [32]: 3.73
% Positive [33]: 5.05%
mean FL [34]: 3.7
% Positive [35]: 5.1%
geometric mean fluorescence [36]: 10.5
Substance: LL2 (murine anti-human CD22 mAb) (antibody)

specific lysis of Daudi target cells (ADCC), corrected for the effect on effector cells [37]: 48%
Substance: hL243 (humanized L243 anti-HLA-DR antibody, IgG1/K isotype)

mean FL [38]: 3.37
% Positive [39]: 4.85%
mean FL [40]: 3.4
% Positive [41]: 4.9%
Substance: hLL2 (epratuzumab, humanized anti-CD22) (antibody)

geometric mean fluorescence [43]: 2.47
Substance: hRS7 (humanized anti-EGP-1 antibody)
